The text below walks through data of PMC8033513 (2021).

B1: extra‐cellular domain (ECD) of rat UNC5H2 (Fc fusion)
chain: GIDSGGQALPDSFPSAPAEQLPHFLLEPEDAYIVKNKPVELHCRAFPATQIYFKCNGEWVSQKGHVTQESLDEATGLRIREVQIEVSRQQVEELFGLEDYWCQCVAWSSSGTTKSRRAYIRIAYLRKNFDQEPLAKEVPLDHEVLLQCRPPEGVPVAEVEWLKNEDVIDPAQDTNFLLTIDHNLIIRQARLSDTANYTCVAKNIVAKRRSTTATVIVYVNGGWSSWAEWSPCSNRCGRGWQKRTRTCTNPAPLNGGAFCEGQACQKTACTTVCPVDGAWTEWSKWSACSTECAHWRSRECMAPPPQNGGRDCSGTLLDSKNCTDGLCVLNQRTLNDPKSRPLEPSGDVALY
B2: extra‐cellular domain (ECD) of human UNC5H3 (domain or fragment)
chain: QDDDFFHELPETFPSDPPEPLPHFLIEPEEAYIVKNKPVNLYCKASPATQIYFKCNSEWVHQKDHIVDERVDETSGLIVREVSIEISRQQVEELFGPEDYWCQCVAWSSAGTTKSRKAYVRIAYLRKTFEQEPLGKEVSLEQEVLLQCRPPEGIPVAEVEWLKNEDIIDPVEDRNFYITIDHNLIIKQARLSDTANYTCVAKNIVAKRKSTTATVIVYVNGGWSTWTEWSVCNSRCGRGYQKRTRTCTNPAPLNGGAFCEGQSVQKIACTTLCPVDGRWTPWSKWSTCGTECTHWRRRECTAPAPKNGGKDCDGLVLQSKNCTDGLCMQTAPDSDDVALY
B3: extra‐cellular domain (ECD) of mouse DCC (Fc fusion)
chain: HLQVTGFQIKPFTSLHFVSEPSDAVTMRGGNVLLNCSAESDRGVPVIKWKKDGLILALGMDDRKQQLPNGSLLIQNILHSRHHKPDEGLYQCEASLADSGSIISRTAKVTVAGPLRFLSQTESITAFMGDTVLLKCEVIGEPMPTIHWQKNQQDLNPLPGDSRVVVLPSGALQISRLQPGDSGVYRCSARNPASIRTGNEAEVRILSDPGLHRQLYFLQRPSNVIAIEGKDAVLECCVSGYPPPSFTWLRGEEVIQLRSKKYSLLGGSNLLISNVTDDDSGTYTCVVTYKNENISASAELTVLVPPWFLNHPSNLYAYESMDIEFECAVSGKPVPTVNWMKNGDVVIPSDYFQIVGGSNLRILGVVKSDEGFYQCVAENEAGNAQSSAQLIVPKPAIPSSSILPSAPRDVLPVLVSSRFVRLSWRPPAEAKGNIQTFTVFFSREGDNRERALNTTQPGSLQLTVGNLKPEAMYTFRVVAYNEWGPGESSQPIKVATQPELQVPGPVENLHAVSTSPTSILITWEPPAYANGPVQGYRLFCTEVSTGKEQNIEVDGLSYKLEGLKKFTEYTLRFLAYNRYGPGVSTDDITVVTLSDVPSAPPQNISLEVVNSRSIKVSWLPPPSGTQNGFITGYKIRHRKTTRRGEMETLEPNNLWYLFTGLEKGSQYSFQVSAMTVNGTGPPSNWYTAETPENDLDESQVPDQPSSLHVRPQTNCIIMSWTPPLNPNIVVRGYIIGYGVGSPYAETVRVDSKQRYYSIERLESSSHYVISLKAFNNAGEGVPLYESATTRSITDPTDPVDYYPLLDDFPTSGPDVSTPMLPPVGVQAVALTHEAVRVSWADNSVPKNQKTSDVRLYTVRWRTSFSASAKYKSEDTTSLSYTATGLKPNTMYEFSVMVTKNRRSSTWSMTAHATTYEAAPTSAPKDLTVITREGKPRAVIVSWQPPLEANGKITAYILFYTLDKNIPIDDWIMETISGDRLTHQIMDLSLDTMYYFRIQARNVKGVGPLSDPILFRTLKVEHPDKMANDQGRHGDGGYWPVDTNLIDRSTLNEPPIGQMHPPHGSVTPQKNSN
B4: extra‐cellular domain (ECD) of human UNC5H1 (domain or fragment)
chain: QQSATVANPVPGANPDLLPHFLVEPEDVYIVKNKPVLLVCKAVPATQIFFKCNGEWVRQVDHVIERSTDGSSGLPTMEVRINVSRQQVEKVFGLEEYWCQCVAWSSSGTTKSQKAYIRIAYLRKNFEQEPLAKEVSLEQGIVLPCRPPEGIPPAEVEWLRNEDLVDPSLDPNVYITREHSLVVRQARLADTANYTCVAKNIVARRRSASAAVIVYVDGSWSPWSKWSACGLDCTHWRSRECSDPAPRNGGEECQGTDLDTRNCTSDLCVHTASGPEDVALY
B6: extra‐cellular domain (ECD) of mouse Neogenin (Fc fusion)
chain: RPASGAAATKSGSPPQSAGASVRTFTPFYFLVEPVDTLSVRGSSVILNCSAYSEPSPNIEWKKDGTFLNLESDDRRQLLPDGSLFISNVVHSKHNKPDEGFYQCVATVDNLGTIVSRTAKLTVAGLPRFTSQPEPSSVYVGNSAILNCEVNADLVPFVRWEQNRQPLLLDDRIVKLPSGTLVISNATEGDGGLYRCIVESGGPPKFSDEAELKVLQDPEEIVDLVFLMRPSSMMKVTGQSAVLPCVVSGLPAPVVRWMKNEEVLDTESSGRLVLLAGGCLEISDVTEDDAGTYFCIADNGNKTVEAQAELTVQVPPGFLKQPANIYAHESMDIVFECEVTGKPTPTVKWVKNGDVVIPSDYFKIVKEHNLQVLGLVKSDEGFYQCIAENDVGNAQAGAQLIILEHDVAIPTLPPTSLTSATTDHLAPATTGPLPSAPRDVVASLVSTRFIKLTWRTPASDPHGDNLTYSVFYTKEGVARERVENTSQPGEMQVTIQNLMPATVYIFKVMAQNKHGSGESSAPLRVETQPEVQLPGPAPNIRAYATSPTSITVTWETPLSGNGEIQNYKLYYMEKGTDKEQDIDVSSHSYTINGLKKYTEYSFRVVAYNKHGPGVSTQDVAVRTLSDVPSAAPQNLSLEVRNSKSIVIHWQPPSSTTQNGQITGYKIRYRKASRKSDVTETLVTGTQLSQLIEGLDRGTEYNFRVAALTVNGTGPATDWLSAETFESDLDETRVPEVPSSLHVRPLVTSIVVSWTPPENQNIVVRGYAIGYGIGSPHAQTIKVDYKQRYYTIENLDPSSHYVITLKAFNNVGEGIPLYESAVTRPHTDTSEVDLFVINAPYTPVPDPTPMMPPVGVQASILSHDTIRITWADNSLPKHQKITDSRYYTVRWKTNIPANTKYKNANATTLSYLVTGLKPNTLYEFSVMVTKGRRSSTWSMTAHGATFELVPTSPPKDVTVVSKEGKPRTIIVNWQPPSEANGKITGYIIYYSTDVNAEIHDWVIEPVVGNRLTHQIQELTLDTPYYFKIQARNSKGMGPMSEAVQFRTPKADSSDKMPNDQALGSAGKGSRLPDLGSDYKPPMSGSNSPHGSPTSPLDSNML

Assay in all cases: BLI
The target of one assay is human netrin‐1 (human, UniProt O95631 25-604).
Assay [1] concerns the target B4.
Assay [2] concerns the target B1.
For assay [3], the target named is B6.
The target of assay [4] is B3.
Assay [5] concerns the target B2.

What is called Kd is the free concentration of one partner at which half of the binding sites on the other are occupied at equilibrium, for simple one-to-one binding. Higher therefore signals lower affinity. Molecule B1 returned a Kd with human netrin‐1 of 6.9 nM. Still for that read-out and setting: with B2 the figure was 5.4 nM; with B3, 6.3 nM; with B4, 12.2 nM.

B5: chicken netrin‐2L (netrin‐2‐like) (ligand)
chain: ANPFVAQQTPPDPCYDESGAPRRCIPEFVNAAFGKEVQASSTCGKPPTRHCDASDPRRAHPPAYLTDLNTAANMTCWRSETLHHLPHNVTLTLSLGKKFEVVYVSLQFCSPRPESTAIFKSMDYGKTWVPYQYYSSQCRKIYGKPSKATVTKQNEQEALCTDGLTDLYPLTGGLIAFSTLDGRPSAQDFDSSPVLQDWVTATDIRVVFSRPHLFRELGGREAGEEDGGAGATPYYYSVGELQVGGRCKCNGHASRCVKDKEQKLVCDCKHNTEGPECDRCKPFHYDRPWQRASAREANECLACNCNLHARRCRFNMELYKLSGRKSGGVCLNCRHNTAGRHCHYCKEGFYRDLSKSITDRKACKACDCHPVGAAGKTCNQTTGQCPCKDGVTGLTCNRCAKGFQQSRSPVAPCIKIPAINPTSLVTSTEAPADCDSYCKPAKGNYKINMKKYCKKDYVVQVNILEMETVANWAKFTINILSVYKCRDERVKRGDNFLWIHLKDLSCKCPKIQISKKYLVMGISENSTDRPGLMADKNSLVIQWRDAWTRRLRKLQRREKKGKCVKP
For B5, the Kd is 106 nM in assay [1]; 8.8 nM in assay [2]; 51.7 nM in assay [3]; 31 nM in assay [4]; 4.3 nM in assay [5]. As to B6, binding in the assay with human netrin‐1 was characterised by a dissociation constant (Kd) of 7.8 nM.
